The chains are these.
B1: kLANA(1013–1149) (domain or fragment)
chain: GSRYQQPPVPYRQIDDCPAKARPQHIFYRRFLGKDGRRDPKCQWKFAVIFWGNDPYGLKKLSQAFQFGGVKAGPVSCLPHPGPDQSPITYCVYVYCQNKDTSKKVQMARLAWEASHPLAGNLQSSIVKFKKPLPLTQPG
notes: source: E. coli BL21(DE3), purified (Ni-NTA with guanidine gradient, thrombin cleavage)
B2: kLANA(996–1153) (domain or fragment)
chain: GSGVRMRRVPVTHPKKPHPRYQQPPVPYRQIDDCPAKARPQHIFYRRFLGKDGRRDPKCQWKFAVIFWGNDPYGLKKLSQAFQFGGVKAGPVSCLPHPGPDQSPITYCVYVYCQNKDTSKKVQMARLAWEASHPLAGNLQSSIVKFKKPLPLTQPGENQG
notes: as for B1
B3: mLANA(124–260) (domain or fragment)
chain: GSKRYSRYQKPHNPSDPLPKKYQGMRRHLQVTAPRLFDPEGHPPTHFKSAVMFSSTHPYTLNKLHKCIQSKHVLSTPVSCLPLVPGTTQQCVTYYLLSFVEDKKQAKKLKRVVLAYCEKYHSSVEGTIVKAKPYFPLPE
notes: as for B1
B4: 15N-BRD2 ET(632–713), with N-terminal GSGS (domain or fragment)
chain: GSGSDSEEEEESRPMSYDEKRQLSLDINKLPGEKLGRVVHIIQAREPSLRDSNPEEIEIDFETLKPSTLRELERYVLSCLRKKPRK
notes: also called 15N-BRD2(632–713); source: E. coli BL21(DE3), purified (Ni-NTA with guanidine gradient, thrombin cleavage)

Series [1] deals with the molecule itself. The series can be described thus: crystal structure.
Series [2] deals with the molecule itself. The series can be described thus: asymmetric field flow fractionation with multi-angle static light scattering; 40 µg protein per run; 10 mM bis-tris-Cl pH 6.5, 50 mM NaCl, 0.01% NaN3.
Series [3] addresses B2. The series can be described thus: NMR titration. To be noted: both partners purified.

On to B1, for which the results for the “stoichiometry N” value in series [1] and in series [2] were 10 and 2, respectively.
As for B2, in series [1], the stoichiometry N (commonly a count of units in the complex or per binding partner) was found to be 8.
For B3, the “stoichiometry N” value in series [1] amounted to 2.
Regarding B4, the binding result in series [3] is given as “binds”.

Values taken from article PMC3798688, “A Structural Basis for BRD2/4-Mediated Host Chromatin Interaction and Oligomer Assembly of Kaposi Sarcoma-Associated Herpesvirus and Murine Gammaherpesvirus LANA Proteins” (PLoS Pathogens, 2013).
